{"source": "paper PMC12141716", "about": "“An archaeal nucleoid-associated protein binds an essential motif in DNA replication origins” (Nature Communications, 2025)", "biological_target": "T1, UBP (Sulfolobus islandicus REY15A, UniProt F0NFD3 1-111)", "T1 sequence": "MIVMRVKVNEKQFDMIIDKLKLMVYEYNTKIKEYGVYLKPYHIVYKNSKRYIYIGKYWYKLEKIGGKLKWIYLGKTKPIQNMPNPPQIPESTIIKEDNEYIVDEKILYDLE", "experiment": "thermal melting protection; 55-65 C, 50 mM NaCl; EMSA: 50 mM K-acetate, 20 mM Tris-acetate, 10 mM Mg-acetate, 1 mM DTT, pH 7.9, 5-10% glycerol, 70 mM NaCl, 800 ng salmon sperm DNA per 10 ul, room temperature 10 min; footprinting same buffer, 4% glycerol, 8000 ng salmon sperm DNA; pull-down 25 mM HEPES pH 7.5, 150 mM NaCl, 10 mM MgCl, 100 uM ZnCl, 10 mM DTT, 48 C", "conditions": "protein: recombinant; tags: MBP tag removed by Factor Xa; 3 extra vector residues at N-terminus; chain copies: 2; label: 5'-32P; 40 bp duplex with 10 nt C overhangs at 5' and 3' of strand 2"}
{"binder": "40 bp duplex for melting (P19/P20) (dsDNA) DNA 1: ATAATTAGATAACCATTATACAAAAGAATTGTATAAGAAT DNA 2: CCCCCCCCCCATTCTTATACAATTCTTTTGTATAATGGTTATCTAATTATCCCCCCCCCC", "values": [{"measurement": "binding result", "result": "binds"}]}
